± gives the standard error. Fewer inactive variants are shown than the library holds.
B1: glmS ribozyme (parent)
chain: AUAAAAGCGCCAGAACUACAGAAAUGUAGUUGACGAGGAGGAGGUUUAUCGAAUUUUCGGCGGAUGCCUCCAAA

Tests used:
Conditions in all cases: with glucosamine-6-phosphate
glucosamine-6-phosphate [1] = variants of: B1; assay: self-cleavage kobs at 160 uM GlcN6P; higher = faster cleavage; RNA array
Procedure, shortened: (§1)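 Barcoded glmS ribozyme variants on sequenced MiSeq chips were transcribed in situ by E. coli RNA polymerase and tracked through a hybridised Cy3 probe at 37 °C. Glucosamine-6-phosphate (40 μM to 10 mM) in HEPES/KCl/Mg(OAc)2 buffer was flowed in, and tiles were imaged over ~14 h. Signals were normalised to baseline and to non-cleaving reference variants; per-tile medians were fit to one- or two-exponential decays to give kobs. kcat and KM came from weighted Michaelis–Menten fits across concentrations.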

glucosamine-6-phosphate [2] = variants of: B1; assay: self-cleavage kobs at 640 uM GlcN6P; higher = faster cleavage; RNA array
Procedure, shortened: as §1

glucosamine-6-phosphate [3] = variants of: B1; assay: self-cleavage kobs at 2500 uM GlcN6P; higher = faster cleavage; RNA array
Procedure, shortened: as §1

glucosamine-6-phosphate [4] = variants of: B1; assay: self-cleavage kobs at 10000 uM GlcN6P; higher = faster cleavage; RNA array
Procedure, shortened: as §1

Variant	self-cleavage kobs at 160 uM GlcN6P (glucosamine-6-phosphate [1])	self-cleavage kobs at 640 uM GlcN6P (glucosamine-6-phosphate [2])	self-cleavage kobs at 2500 uM GlcN6P (glucosamine-6-phosphate [3])	self-cleavage kobs at 10000 uM GlcN6P (glucosamine-6-phosphate [4])
AUAAAAGCGACAGAACUACAGAAAUGUAGUUGACGAGGAGGAGGUUUCUCGAAUUCUCGGCGGAUGCCUCCAAA	< 1e-05 s⁻¹	< 1e-05 s⁻¹		
AUAAAAGCUCCAGAACUACAGAAAUGUAGUUGUCGAGGAGGAGGUUUAUCGAGUUUUCGGCGGAUUCCUCCAAA	< 1e-05 s⁻¹			
AUAAAAGCUCCAGAACUACAGAAAUGUAGUUGACGAGGAGCAGGUUGAUCGAAUUUUCGGCGGAUGCCUCCAAA	< 1e-05 s⁻¹	< 1e-05 s⁻¹	< 1e-05 s⁻¹	
AUAAAAGCUCCAGAACUACAGAAAUGUAGUUGACGAGGAGGAAGUUUAUCGAAUUUUCGGCGGAUUCCUCCAAA	< 1e-05 s⁻¹		< 1e-05 s⁻¹	
AUAAAAGCUCCAGAACUACAGAAAUGUAGUUGACGAGGAGGAGGUUUAUCGAAUUUUCGGCGGAUGACUCCAAA	< 1e-05 s⁻¹	< 1e-05 s⁻¹	< 1e-05 s⁻¹	< 1e-05 s⁻¹
AUAAAAGCUCCAGGACUACAGAAAUGUAGUUGACGAGGAGGAGGUUUAUCGAAAUCUCAGCGAAGGCCUCCAAA	< 1e-05 s⁻¹	< 1e-05 s⁻¹		
AUAAAAGCCCCAGAACUACAGAAAUGUAGUUGACGAGGAGGAGGUUUAUCUAAUUUUCGGCGGAUGCCUCCAAA	< 1e-05 s⁻¹	< 1e-05 s⁻¹		< 1e-05 s⁻¹
AUAAAAGCCCCAGAACUACAGAAAUGUAGUUGACGAGGAAGAGGUUUAUCGAAUUUUCGGCGGAUGCCUCCAAA	< 1e-05 s⁻¹	< 1e-05 s⁻¹	< 1e-05 s⁻¹	< 1e-05 s⁻¹
AUAAAAGCCCCAGAACUACAGAAAUGUAGUUGACGAGGAUGAGGUUUAUCGAAUUUUCGGCGGAUGCCUCCAAA	< 1e-05 s⁻¹	< 1e-05 s⁻¹	< 1e-05 s⁻¹	< 1e-05 s⁻¹
AUAAAAGCCCCAGAACUACAGAAAUGUAGUUGACGAGGAGGAGGUUUAUGGAAUUUUCGGCGGAUGCCUCCAAA	0.00045 ± 0.00018 s⁻¹			
AUAAAAGCUUCAGAACUACAGAAAUGUAGUUGACGAGGAGGAGGUUUAUCGAAGUUUCGGCGGAUGCCUCCAAA	< 1e-05 s⁻¹			
AUAAAAGCCCCAGAACUACAGAAAUGUAGUUGACGAGGAGGAGGUGUAUCGAAUUUUCGGCGGAUGCCUCCAAA	< 1e-05 s⁻¹	< 1e-05 s⁻¹		< 1e-05 s⁻¹
AUAAAAGCUCCAGAACUACAGAAAUGUAGUUCACGAGGAGGAGGUUUAUCGAAUUUUCGGCGGAUGCCUCCAAA	< 1e-05 s⁻¹	< 1e-05 s⁻¹		< 1e-05 s⁻¹
AUAAAAGCCCCAGAACUACAGAAAUGUAGUUGACGAGGAGGAGGUUUGUCGAAUUUUCGGCGGAUGCCUCCAAA	< 1e-05 s⁻¹	< 1e-05 s⁻¹	< 1e-05 s⁻¹	< 1e-05 s⁻¹
AUAAAAGCCCCAGAACUACAGAAAUGUAGUUGACGAGGAGGAGGUUUAUCGAAUUGUCGGCGGCUGCCUCCAAA	< 1e-05 s⁻¹	< 1e-05 s⁻¹	< 1e-05 s⁻¹	
AUAAAAGCUGUAGAACUACAGAAAUGUAGUUGACGAGGAGGAGGUUUAUCGAAUUUUCGGCGGAUGCCUUCAAA	< 1e-05 s⁻¹		< 1e-05 s⁻¹	
AUAAAAGCCCCCGAACUACAGAAAUGUAGUCGACGAGGAGGAGGUUUAUCGAAUUUUCGGCGGAUGCCUCCAAA	< 1e-05 s⁻¹	< 1e-05 s⁻¹	< 1e-05 s⁻¹	
AUAAAAGCGACAGAAUUACAGAAAUGUAGUUGACGAGGAGACGGUUUAUCGAAUUUUCGGCGGAUGCCUCCAAA	< 1e-05 s⁻¹	< 1e-05 s⁻¹	< 1e-05 s⁻¹	< 1e-05 s⁻¹
AUAAAAGCCCCAGAACUACAGAAAUGUAGUUGACGAAGAGGAGGUAUAUCGUAUUUUCGAAGGAUGCCUCCAAA	< 1e-05 s⁻¹		< 1e-05 s⁻¹	
AUAAAAGCCCCAGAACUACAGAAAUGUAGUUGACGAGGAGGAGGAUCAUCGAAUUUUCGGCGGAUGCGUCCAAA	< 1e-05 s⁻¹	< 1e-05 s⁻¹	< 1e-05 s⁻¹	
AUAAAAGCUCCAGAACUACAGAAAUGUAGUUGACGAGGAAGAGGUUUAUCGAAUUUUCGGCGGAUGCCUCCAAA	< 1e-05 s⁻¹	< 1e-05 s⁻¹	< 1e-05 s⁻¹	< 1e-05 s⁻¹
AUAAAAGCUCCAGAACUACAGAAAUGUAGUUCACCAGGAGGAGGUUUAUCGAAUUUUCGGCGGGUGCCUCCAAA	< 1e-05 s⁻¹	< 1e-05 s⁻¹	< 1e-05 s⁻¹	
AUAAAAGCUCCAGAACUACAGAAAUGUAGUGGACGAGGAGGAGGUUUGUCGAAUUUUCGGCGGAUGCCUCCAAA	< 1e-05 s⁻¹			
AUAAAAGCGACAGGACUACAGAAAUGUAGUUGACGAGGAGGAGGUUUAUCGAAUUUUCGGCGGAUGCCUCCAAA	< 1e-05 s⁻¹			3.58e-05 ± 1.1e-05 s⁻¹
AUAAAAGCGACAGAACUACAGAAAUGUAGUUGACGAGGAGGUGGUUUAUCGAAUUUUCGGCGGAUGCCUCCAAA	< 1e-05 s⁻¹	< 1e-05 s⁻¹	< 1e-05 s⁻¹	
AUAAAAGCUCCAGAACUACAGAAAUGUAGUUGACGAGGAGGAGGUUUAUCGCAUUUUCGGCGGAUGCCUCCAAA	< 1e-05 s⁻¹		< 1e-05 s⁻¹	
AUAAAAGCCCCAGAACUACAGAAAUGUAGUUGACGCGGAGGAGGUUUAUCGAAUUUUCGGCGGAUGCCUCCAAA	< 1e-05 s⁻¹	< 1e-05 s⁻¹	< 1e-05 s⁻¹	< 1e-05 s⁻¹
AUAAAAGCCCCAGAACUACAGAAAUGUAGUUGACGAGGAGGAGGUGUAUCGAAUUUUCGGCGGAUGGCUCCAAA	< 1e-05 s⁻¹			

Reference: the supplement of paper PMC7125110
